One block for each binder: values may come before it. Bridges are numbered along the chain shown (N, C = ends). [ ]: non-standard residue; d: D form. Gly(octyl) = CCCCCCCC[C@H](N)C(=O)O; Pro(4NHCOPhe) = not defined here; Cha = N[C@@H](CC1CCCCC1)C(=O)O
Columns and labels:
Experiment in all cases: enzyme inhibition, pNA substrate
[1] = biological target: T1, Tryptase, from human lung (human, UniProt Q15661 31-275, limits assumed)
T1 construct: purified natural enzyme, bought

[2] = biological target: T2, Urokinase from human urine (human, UniProt P00749 21-431, limits assumed)
T2 construct: purified natural enzyme, bought

Chymase, from human skin = biological target: T3, Chymase, from human skin (human, UniProt P23946 22-247)
T3 construct: purified natural enzyme, bought
T3 sequence (looked up): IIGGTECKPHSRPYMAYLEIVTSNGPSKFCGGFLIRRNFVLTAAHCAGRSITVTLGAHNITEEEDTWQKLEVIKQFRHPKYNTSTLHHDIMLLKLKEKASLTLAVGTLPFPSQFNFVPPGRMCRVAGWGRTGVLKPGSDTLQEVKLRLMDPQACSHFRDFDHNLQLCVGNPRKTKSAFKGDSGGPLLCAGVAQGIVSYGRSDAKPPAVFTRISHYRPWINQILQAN

[3] = biological target: T4, CathepsinG, from human neutrophils (human, UniProt P08311 21-244)
T4 construct: purified natural enzyme, bought
T4 sequence (looked up): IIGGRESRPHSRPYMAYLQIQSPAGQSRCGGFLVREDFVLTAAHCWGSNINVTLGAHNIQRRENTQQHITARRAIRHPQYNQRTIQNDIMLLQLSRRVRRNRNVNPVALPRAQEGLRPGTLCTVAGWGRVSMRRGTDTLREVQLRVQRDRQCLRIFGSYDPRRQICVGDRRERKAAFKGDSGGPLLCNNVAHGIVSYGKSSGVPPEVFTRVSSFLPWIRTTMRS

[4] = biological target: T5, Chymotrypsin, from human pancreas (human, UniProt P17538 19-263)
T5 construct: purified natural enzyme, bought
T5 sequence (P17538 19-263): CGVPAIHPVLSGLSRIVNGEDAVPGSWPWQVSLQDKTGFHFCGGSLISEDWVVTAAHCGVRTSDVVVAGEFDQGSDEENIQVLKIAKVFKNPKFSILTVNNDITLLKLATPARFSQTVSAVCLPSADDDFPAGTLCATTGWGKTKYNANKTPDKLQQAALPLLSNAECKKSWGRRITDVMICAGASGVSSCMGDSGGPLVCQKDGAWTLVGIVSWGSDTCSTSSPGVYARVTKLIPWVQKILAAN

[5] = biological target: T6, Trypsin, Iodination grade, from human pancreas (human, UniProt P07477 24-247)
T6 construct: purified natural enzyme, bought

[6] = biological target: Thrombin, from Human Plasma, high activity (human, UniProt P00734 328-622)
[7] = biological target: T7, Coagulation Factor Xa, from uman plasma (human, UniProt P00742 41-179; P00742 235-488, limits assumed)
T7 construct: purified natural enzyme, bought; also called FXa
T7 sequence (P00742 41-179 limits assumed, chain 1 of 2): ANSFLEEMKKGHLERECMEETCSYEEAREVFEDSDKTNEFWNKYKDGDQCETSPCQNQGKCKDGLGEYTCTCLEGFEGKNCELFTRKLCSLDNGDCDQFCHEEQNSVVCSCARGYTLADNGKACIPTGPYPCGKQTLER
T7 sequence (P00742 235-488 limits assumed, chain 2 of 2): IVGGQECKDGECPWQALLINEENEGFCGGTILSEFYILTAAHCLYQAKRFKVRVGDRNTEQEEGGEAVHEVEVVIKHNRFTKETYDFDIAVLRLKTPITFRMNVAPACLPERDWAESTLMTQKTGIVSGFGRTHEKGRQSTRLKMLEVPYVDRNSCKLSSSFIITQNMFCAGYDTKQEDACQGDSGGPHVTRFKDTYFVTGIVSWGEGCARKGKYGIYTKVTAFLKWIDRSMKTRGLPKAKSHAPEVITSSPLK

T1 sequence (Q15661 31-275 limits assumed): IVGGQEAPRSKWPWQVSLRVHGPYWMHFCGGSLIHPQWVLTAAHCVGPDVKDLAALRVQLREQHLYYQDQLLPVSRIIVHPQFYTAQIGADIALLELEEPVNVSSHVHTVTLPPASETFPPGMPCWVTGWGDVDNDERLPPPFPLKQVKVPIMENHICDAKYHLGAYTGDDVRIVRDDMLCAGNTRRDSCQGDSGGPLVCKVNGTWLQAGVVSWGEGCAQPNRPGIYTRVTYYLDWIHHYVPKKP

- % inhibition at 100 µM [1]: 13%
- % inhibition at 100 µM [2]: 10%
- % inhibition at 100 µM (Chymase, from human skin): 0%
- % inhibition at 100 µM [3]: 55%
- % inhibition at 100 µM [4]: 93%
B1: Example 158 (peptide)
peptide: XCTASXPPQCQ
HELM: PEPTIDE1{[O=C([C@H](CCc1ccccc1)N[*:1])[*:2]].C.T.A.S.[Cha].P.P.Q.C.Q.[dP].P}$PEPTIDE1,PEPTIDE1,2:R3-10:R3|PEPTIDE1,PEPTIDE1,1:R1-13:R2$$$V2.0
SMILES: C[C@@H]1NC(=O)[C@H]([C@@H](C)O)NC(=O)[C@@H]2CSSC[C@H](NC(=O)[C@H](CCC(N)=O)NC(=O)[C@@H]3CCCN3C(=O)[C@@H]3CCCN3C(=O)[C@H](CC3CCCCC3)NC(=O)[C@H](CO)NC1=O)C(=O)N[C@@H](CCC(N)=O)C(=O)N1CCC[C@@H]1C(=O)N1CCC[C@H]1C(=O)N[C@@H](CCc1ccccc1)C(=O)N2

- % inhibition at 100 µM [1]: 0%
- % inhibition at 100 µM [2]: 0%
- % inhibition at 100 µM (Chymase, from human skin): 0%
- % inhibition at 100 µM [3]: 53.5%
- % inhibition at 100 µM [5]: 0%
B2: Example 104 (peptide)
peptide: XETASIPPQKY
HELM: PEPTIDE1{[Nle].E.T.A.S.I.P.P.Q.K.Y.[dP].P}$PEPTIDE1,PEPTIDE1,1:R1-13:R2$$$V2.0
SMILES: CCCC[C@@H]1NC(=O)[C@@H]2CCCN2C(=O)[C@H]2CCCN2C(=O)[C@H](Cc2ccc(O)cc2)NC(=O)[C@H](CCCCN)NC(=O)[C@H](CCC(N)=O)NC(=O)[C@@H]2CCCN2C(=O)[C@@H]2CCCN2C(=O)[C@H]([C@@H](C)CC)NC(=O)[C@H](CO)NC(=O)[C@H](C)NC(=O)[C@H]([C@@H](C)O)NC(=O)[C@H](CCC(=O)O)NC1=O

- % inhibition at 100 µM [6]: 0%
- % inhibition at 100 µM [3]: 54.1%
- % inhibition at 100 µM [5]: 0%
- % inhibition at 100 µM [4]: 13.8%
B3: Example 109 (peptide)
peptide: XQTASIPPQTY
HELM: PEPTIDE1{[Nle].Q.T.A.S.I.P.P.Q.T.Y.[dP].P}$PEPTIDE1,PEPTIDE1,1:R1-13:R2$$$V2.0
SMILES: CCCC[C@@H]1NC(=O)[C@@H]2CCCN2C(=O)[C@H]2CCCN2C(=O)[C@H](Cc2ccc(O)cc2)NC(=O)[C@H]([C@@H](C)O)NC(=O)[C@H](CCC(N)=O)NC(=O)[C@@H]2CCCN2C(=O)[C@@H]2CCCN2C(=O)[C@H]([C@@H](C)CC)NC(=O)[C@H](CO)NC(=O)[C@H](C)NC(=O)[C@H]([C@@H](C)O)NC(=O)[C@H](CCC(N)=O)NC1=O
notes: also called Ex. 109

- % inhibition at 100 µM [6]: 17%
- % inhibition at 100 µM [1]: 15%
- % inhibition at 100 µM [2]: 12%
- % inhibition at 100 µM [3]: 54%
- % inhibition at 100 µM [4]: 86%
B4: Example 177 (peptide)
peptide: XCTASIPPQCY
HELM: PEPTIDE1{[CCCCCCCC[C@H](N[*:1])C(=O)[*:2]].C.T.A.S.I.P.P.Q.C.Y.[dP].Q}$PEPTIDE1,PEPTIDE1,2:R3-10:R3|PEPTIDE1,PEPTIDE1,1:R1-13:R2$$$V2.0
SMILES: CCCCCCCC[C@@H]1NC(=O)[C@H](CCC(N)=O)NC(=O)[C@H]2CCCN2C(=O)[C@H](Cc2ccc(O)cc2)NC(=O)[C@@H]2CSSC[C@H](NC1=O)C(=O)N[C@@H]([C@@H](C)O)C(=O)N[C@@H](C)C(=O)N[C@@H](CO)C(=O)N[C@@H]([C@@H](C)CC)C(=O)N1CCC[C@H]1C(=O)N1CCC[C@H]1C(=O)N[C@@H](CCC(N)=O)C(=O)N2
notes: also called Ex. 177

- % inhibition at 100 µM [7]: 13.3%
- % inhibition at 100 µM [1]: 0%
- % inhibition at 100 µM [3]: 64%
- % inhibition at 100 µM [5]: 0%
- % inhibition at 100 µM [4]: 47.2%
B5: Example 127 (peptide)
peptide: XCTASIPPQCY
HELM: PEPTIDE1{[Nle].C.T.A.S.I.P.P.Q.C.Y.[dK].E}$PEPTIDE1,PEPTIDE1,2:R3-10:R3|PEPTIDE1,PEPTIDE1,1:R1-13:R2$$$V2.0
SMILES: CCCC[C@@H]1NC(=O)[C@H](CCC(=O)O)NC(=O)[C@@H](CCCCN)NC(=O)[C@H](Cc2ccc(O)cc2)NC(=O)[C@@H]2CSSC[C@H](NC1=O)C(=O)N[C@@H]([C@@H](C)O)C(=O)N[C@@H](C)C(=O)N[C@@H](CO)C(=O)N[C@@H]([C@@H](C)CC)C(=O)N1CCC[C@H]1C(=O)N1CCC[C@H]1C(=O)N[C@@H](CCC(N)=O)C(=O)N2

- % inhibition at 100 µM [7]: 0%
- % inhibition at 100 µM [6]: 12%
- % inhibition at 100 µM [1]: 18%
- % inhibition at 100 µM (Chymase, from human skin): 0%
- % inhibition at 100 µM [3]: 28%
- % inhibition at 100 µM [5]: 12%
- % inhibition at 100 µM [4]: 91%
B6: Example 143 (peptide)
peptide: XCTASIPPQCQ
HELM: PEPTIDE1{[O=C([C@H](CCc1ccccc1)N[*:1])[*:2]].C.T.A.S.I.P.P.Q.C.Q.[dP].P}$PEPTIDE1,PEPTIDE1,2:R3-10:R3|PEPTIDE1,PEPTIDE1,1:R1-13:R2$$$V2.0
SMILES: CC[C@H](C)[C@@H]1NC(=O)[C@H](CO)NC(=O)[C@H](C)NC(=O)[C@H]([C@@H](C)O)NC(=O)[C@@H]2CSSC[C@H](NC(=O)[C@H](CCC(N)=O)NC(=O)[C@@H]3CCCN3C(=O)[C@@H]3CCCN3C1=O)C(=O)N[C@@H](CCC(N)=O)C(=O)N1CCC[C@@H]1C(=O)N1CCC[C@H]1C(=O)N[C@@H](CCc1ccccc1)C(=O)N2
notes: also called Ex. 143

- % inhibition at 100 µM [6]: 32%
- % inhibition at 100 µM [1]: 30%
- % inhibition at 100 µM [2]: 12%
- % inhibition at 100 µM [3]: 52%
- % inhibition at 100 µM [4]: 91%
B7: Example 148 (peptide)
peptide: XCTASXPPQCQ
HELM: PEPTIDE1{[CCCCCCCC[C@H](N[*:1])C(=O)[*:2]].C.T.A.S.[CCCCCCCC[C@H](N[*:1])C(=O)[*:2]].P.P.Q.C.Q.[dP].P}$PEPTIDE1,PEPTIDE1,2:R3-10:R3|PEPTIDE1,PEPTIDE1,1:R1-13:R2$$$V2.0
SMILES: CCCCCCCC[C@@H]1NC(=O)[C@@H]2CCCN2C(=O)[C@H]2CCCN2C(=O)[C@H](CCC(N)=O)NC(=O)[C@@H]2CSSC[C@H](NC1=O)C(=O)N[C@@H]([C@@H](C)O)C(=O)N[C@@H](C)C(=O)N[C@@H](CO)C(=O)N[C@@H](CCCCCCCC)C(=O)N1CCC[C@H]1C(=O)N1CCC[C@H]1C(=O)N[C@@H](CCC(N)=O)C(=O)N2
notes: also called Ex. 148

- % inhibition at 100 µM [7]: 15.3%
- % inhibition at 100 µM [6]: 0%
- % inhibition at 100 µM [1]: 44.5%
- % inhibition at 100 µM (Chymase, from human skin): 0%
- % inhibition at 100 µM [3]: 63.4%
- % inhibition at 100 µM [5]: 0%
- % inhibition at 100 µM [4]: 72.9%
B8: Example 141 (peptide)
peptide: XCTASXPPQCY
HELM: PEPTIDE1{[Nle].C.T.A.S.[Cha].P.P.Q.C.Y.[dP].P}$PEPTIDE1,PEPTIDE1,2:R3-10:R3|PEPTIDE1,PEPTIDE1,1:R1-13:R2$$$V2.0
SMILES: CCCC[C@@H]1NC(=O)[C@@H]2CCCN2C(=O)[C@H]2CCCN2C(=O)[C@H](Cc2ccc(O)cc2)NC(=O)[C@@H]2CSSC[C@H](NC1=O)C(=O)N[C@@H]([C@@H](C)O)C(=O)N[C@@H](C)C(=O)N[C@@H](CO)C(=O)N[C@@H](CC1CCCCC1)C(=O)N1CCC[C@H]1C(=O)N1CCC[C@H]1C(=O)N[C@@H](CCC(N)=O)C(=O)N2
notes: also called Ex. 141

- % inhibition at 100 µM [6]: 11%
- % inhibition at 100 µM [1]: 10%
- % inhibition at 100 µM (Chymase, from human skin): 0%
- % inhibition at 100 µM [3]: 56%
- % inhibition at 100 µM [4]: 85%
B9: Example 174 (peptide)
peptide: XCTASIPPQCY
HELM: PEPTIDE1{[O=C([C@H](CCc1ccccc1)N[*:1])[*:2]].C.T.A.S.I.P.P.Q.C.Y.[dK].E}$PEPTIDE1,PEPTIDE1,2:R3-10:R3|PEPTIDE1,PEPTIDE1,1:R1-13:R2$$$V2.0
SMILES: CC[C@H](C)[C@@H]1NC(=O)[C@H](CO)NC(=O)[C@H](C)NC(=O)[C@H]([C@@H](C)O)NC(=O)[C@@H]2CSSC[C@H](NC(=O)[C@H](CCC(N)=O)NC(=O)[C@@H]3CCCN3C(=O)[C@@H]3CCCN3C1=O)C(=O)N[C@@H](Cc1ccc(O)cc1)C(=O)N[C@H](CCCCN)C(=O)N[C@@H](CCC(=O)O)C(=O)N[C@@H](CCc1ccccc1)C(=O)N2

- % inhibition at 100 µM [6]: 23%
- % inhibition at 100 µM [1]: 30%
- % inhibition at 100 µM [2]: 14%
- % inhibition at 100 µM [3]: 55%
- % inhibition at 100 µM [4]: 94%
Binder: cyclo([Gly(octyl)]CTAS[Cha]P[Pro(4NHCOPhe)]QCQ[dP]P) (disulfide 2-10; not fully specified; reading uncertain, also called Ex. 160) [Example 160]

From patent publication US20140213531A1 (POLYPHOR, published 2014)
